Reference: US20240092937A1 (HUMMINGBIRD BIOSCIENCE HOLDINGS PTE, published 2024)
One block for each molecule: values may come before it.

Tests used:
[1] = biological target: human HER4 expressed on HEK293 cells (human) (UniProt Q15303); experiment: flow cytometry on HEK293 HER4 overexpressing cells, 10 µg/ml antibody
[2] = biological target: human HER3 expressed on cells (human) (UniProt P21860); experiment: flow cytometry on HEK293T HER3 O/E cells, '10 ug' antibody as printed (10 µg/ml by paragraph 872), FITC anti-Fc secondary
[3] = biological target: human HER3 expressed on cells (human) (UniProt P21860); experiment: flow cytometry, HEK293 cells overexpressing human HER3, 20 ug/ml antibody, FITC anti-Fc secondary; isotype on WT HEK293: 0.07
FcRn (human) = FcRn (human) (UniProt P55899); experiment: Bio-Layer Interferometry, determined as described in Example 7
FcgRIIIA (F158) (human) = FcgRIIIA (F158) (human) (UniProt P08637); experiment: as above
moFcRn (mouse) = biological target: T1, moFcRn (mouse) (UniProt Q61559); experiment: as above
T1 sequence (receptor, looked up): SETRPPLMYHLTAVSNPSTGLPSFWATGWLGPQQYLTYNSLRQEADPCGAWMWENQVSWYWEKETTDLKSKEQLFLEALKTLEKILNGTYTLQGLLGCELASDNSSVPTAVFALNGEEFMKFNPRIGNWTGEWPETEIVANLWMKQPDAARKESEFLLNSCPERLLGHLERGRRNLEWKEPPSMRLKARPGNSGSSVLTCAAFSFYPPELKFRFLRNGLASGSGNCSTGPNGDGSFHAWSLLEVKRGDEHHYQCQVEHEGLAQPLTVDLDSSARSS
T1 sequence (looked up): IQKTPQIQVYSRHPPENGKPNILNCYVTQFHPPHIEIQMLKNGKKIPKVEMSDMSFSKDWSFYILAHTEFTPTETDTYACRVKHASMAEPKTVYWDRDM

moFcgRIV (mouse) = experiment: as above
[4] = biological target: His-tagged FcγRIIIa (V158) (UniProt P08637); experiment: Bio-Layer Interferometry, determined as described in Example 7; receptor row FcgRIIIA (V158)
[5] = biological target: human HER3 expressed on cells (human) (UniProt P21860); experiment: flow cytometry, HEK293 cells overexpressing human HER3, 20 ug/ml antibody, FITC anti-Fc secondary; same antibody on WT HEK293: 1.91
[6] = biological target: human HER3 expressed on cells (human) (UniProt P21860); experiment: flow cytometry, HEK293 cells overexpressing human HER3, 20 ug/ml antibody, FITC anti-Fc secondary; same antibody on WT HEK293: 8.15
FcgRIIA (H167) (human) = experiment: Bio-Layer Interferometry, determined as described in Example 7
FcgRIIA (R167) (human) = experiment: as above
FcgRIIB (human) = experiment: as above
[7] = biological target: human HER3 polypeptide, recombinant (His-tagged human HER3) (human) (UniProt P21860); experiment: BLI (Octet QK384), His-tagged human HER3 on anti-Penta-HIS tips, saturating antibody LJM-716 (400 nM), then competing antibody MM-121 (300 nM)
[8] = biological target: human HER3 polypeptide, recombinant (His-tagged human HER3) (human) (UniProt P21860); experiment: plate ELISA dimerisation assay: human EGFR-His coated, HER3-biotin 4 µg/ml and NRG 0.1 µg/ml constant, antibody titrated; blocked interaction EGFR:HER3
mouse HER3 polypeptide = biological target: T2, mouse HER3 polypeptide (mouse, UniProt Q61526 20-641); experiment: ELISA, plate coated with 0.1 ug/ml target polypeptide, antibody serially diluted
T2 construct: also called M. musculus HER3 homologue
Procedure: (§1) ELISAs were used to determine the binding specificity of the antibodies. […] The antibodies were also analysed for their ability to bind to human EGFR and human HER2 (Sino Biological Inc., China).
(§2) ELISAs were carried out according to standard protocols. Briefly, 96-well plates (Nunc, Denmark) were coated with 0.1 μg/ml of target polypeptide in phosphate-buffered saline (PBS) for 16 h at 4° C. After blocking for 1 h with 1% BSA in Tris buffer saline (TBS) at room temperature, the anti-HER3 antibody was serially diluted with the highest concentration being 10 μg/ml, and added to the plate. Post 1 h incubation at room temperature, plates were washed three times with TBS containing 0.05% Tween 20 (TBS-T) and were then incubated with a HRP-conjugated […] antibody (Life Technologies, Inc., USA) for 1 h at room temperature. After washing, plates were developed with colorimetric detection substrate 3,3′,5,5′-tetramethylbenzidine (Turbo-TMB; Pierce, USA) for 10 min.

rat HER3 polypeptide = biological target: T3, rat HER3 polypeptide (rat, UniProt Q62799 20-643, limits assumed); experiment: as above
T3 construct: also called R. norvegicus HER3 homologue
Procedure: as §1, §2

[9] = biological target: T4, human EGFR polypeptide, recombinant (human, UniProt P00533 25-645); experiment: as above
T4 construct: also called human HER1 (EGFR); human EGFR-His
Procedure: as §1, §2

[10] = biological target: human HER2 polypeptide, recombinant (His-tagged HER2 protein) (human, UniProt P04626 23-652); experiment: as above
Procedure: as §1, §2

[11] = biological target: T5, human HER3 polypeptide, recombinant (His-tagged human HER3) (human, UniProt P21860 20-643, biotinylated in the assays of paragraph 766 and paragraph 908); experiment: ELISA on human HER3 polypeptide coated at 0.1 ug/ml
T5 construct: Bought protein (Sino Biological for the ELISAs); also called HER3 His; HER3-biotin

FcgRIIA (H167) (human), sequence (P12318 34-217): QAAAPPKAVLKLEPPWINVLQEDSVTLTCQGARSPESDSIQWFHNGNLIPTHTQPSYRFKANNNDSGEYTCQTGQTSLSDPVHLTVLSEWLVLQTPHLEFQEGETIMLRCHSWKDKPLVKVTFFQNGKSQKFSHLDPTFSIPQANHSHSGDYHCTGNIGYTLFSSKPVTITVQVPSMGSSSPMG
T2 sequence (Q61526 20-641 limits assumed): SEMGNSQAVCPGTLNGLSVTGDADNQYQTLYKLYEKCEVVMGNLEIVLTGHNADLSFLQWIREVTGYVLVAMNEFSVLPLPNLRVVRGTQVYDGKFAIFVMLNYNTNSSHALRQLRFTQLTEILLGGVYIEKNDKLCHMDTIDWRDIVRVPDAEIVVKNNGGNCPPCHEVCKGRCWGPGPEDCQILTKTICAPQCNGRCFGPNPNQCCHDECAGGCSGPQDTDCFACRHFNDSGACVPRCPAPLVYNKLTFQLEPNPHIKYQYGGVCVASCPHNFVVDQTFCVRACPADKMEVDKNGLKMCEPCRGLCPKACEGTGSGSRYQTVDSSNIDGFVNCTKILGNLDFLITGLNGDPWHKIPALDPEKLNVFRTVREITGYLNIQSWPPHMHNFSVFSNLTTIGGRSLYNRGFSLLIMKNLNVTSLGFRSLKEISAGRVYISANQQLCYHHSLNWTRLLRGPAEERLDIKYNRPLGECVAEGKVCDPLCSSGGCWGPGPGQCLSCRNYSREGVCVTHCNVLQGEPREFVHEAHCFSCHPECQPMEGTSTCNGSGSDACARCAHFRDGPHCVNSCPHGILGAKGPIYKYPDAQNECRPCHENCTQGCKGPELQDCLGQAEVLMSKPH
FcgRIIB (human), sequence (P31994 43-217): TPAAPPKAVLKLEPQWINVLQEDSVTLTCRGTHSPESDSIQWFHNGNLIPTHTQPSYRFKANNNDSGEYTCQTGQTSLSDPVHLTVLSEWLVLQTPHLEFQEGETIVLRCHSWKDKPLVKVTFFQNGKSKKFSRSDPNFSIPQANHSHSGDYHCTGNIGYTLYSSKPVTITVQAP
T3 sequence (Q62799 20-643 limits assumed): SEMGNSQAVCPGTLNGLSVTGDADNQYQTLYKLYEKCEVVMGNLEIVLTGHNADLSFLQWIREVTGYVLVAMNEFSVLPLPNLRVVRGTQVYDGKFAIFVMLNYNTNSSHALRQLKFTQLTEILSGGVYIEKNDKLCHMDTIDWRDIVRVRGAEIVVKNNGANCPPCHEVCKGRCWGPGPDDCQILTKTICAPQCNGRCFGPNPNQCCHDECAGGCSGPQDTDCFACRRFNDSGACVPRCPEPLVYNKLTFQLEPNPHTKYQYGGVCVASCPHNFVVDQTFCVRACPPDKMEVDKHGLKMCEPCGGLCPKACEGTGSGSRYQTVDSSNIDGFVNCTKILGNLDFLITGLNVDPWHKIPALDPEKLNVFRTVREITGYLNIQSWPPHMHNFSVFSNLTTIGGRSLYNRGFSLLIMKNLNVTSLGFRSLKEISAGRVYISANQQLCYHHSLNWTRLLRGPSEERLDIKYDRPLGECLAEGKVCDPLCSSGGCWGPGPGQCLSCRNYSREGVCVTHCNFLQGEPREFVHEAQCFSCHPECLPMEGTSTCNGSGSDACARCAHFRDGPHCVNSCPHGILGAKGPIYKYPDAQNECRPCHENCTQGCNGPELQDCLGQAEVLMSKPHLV

% Parent (HER3 positive) [3]: 0.12%
Molecule: Isotype (antibody)

% Positive for HER4 [1]: 8.73% | Kd (FcRn (human)): 11.5 nM | Kd (FcgRIIA (H167) (human)): 222 nM | Kd (FcgRIIA (R167) (human)): 243 nM | Kd (FcgRIIB (human)): 1440 nM | Kd (moFcRn (mouse)): 6.69 nM | Kd [4]: 7.05 µM | cell of the competition table (name and unit of the value not given) [7]: 0.693 | IC50 [8]: 54.2 nM
B1: anti-HER3 antibody MM-121 (seribantumab) (antibody, INN chains, looked up, human IgG2)
heavy: EVQLLESGGGLVQPGGSLRLSCAASGFTFSHYVMAWVRQAPGKGLEWVSSISSSGGWTLYADSVKGRFTISRDNSKNTLYLQMNSLRAEDTAVYYCTRGLKMATIFDYWGQGTLVTVSSASTKGPSVFPLAPCSRSTSESTAALGCLVKDYFPEPVTVSWNSGALTSGVHTFPAVLQSSGLYSLSSVVTVPSSNFGTQTYTCNVDHKPSNTKVDKTVERKCCVECPPCPAPPVAGPSVFLFPPKPKDTLMISRTPEVTCVVVDVSHEDPEVQFNWYVDGVEVHNAKTKPREEQFNSTFRVVSVLTVVHQDWLNGKEYKCKVSNKGLPAPIEKTISKTKGQPREPQVYTLPPSREEMTKNQVSLTCLVKGFYPSDIAVEWESNGQPENNYKTTPPMLDSDGSFFLYSKLTVDKSRWQQGNVFSCSVMHEALHNHYTQKSLSLSPG
light: QSALTQPASVSGSPGQSITISCTGTSSDVGSYNVVSWYQQHPGKAPKLIIYEVSQRPSGVSNRFSGSKSGNTASLTISGLQTEDEADYYCCSYAGSSIFVIFGGGTKVTVLGQPKAAPSVTLFPPSSEELQANKATLVCLVSDFYPGAVTVAWKADGSPVKVGVETTKPSKQSNNKYAASSYLSLTPEQWKSHRSYSCRVTHEGSTVEKTVAPAECS

binding result (mouse HER3 polypeptide): binds | binding result (rat HER3 polypeptide): binds | binding result [9]: binds | binding result [10]: binds
B2: anti-HER3 clone 4-35-B4 IgG1 (antibody, V domains shown)
VH: EVQLQQSGAELVKPGASVKLSCTASGFNIKDTYIHWVKQRPDQGLEWIGKIIDPANGNTNYDPKFQGKATITADTSSNTAYLQLSSLSSEDTAVYFCARGLHWGQGTTLTVSS
VL: DIVLTQSPASLAVSLGQRATISCRASKSVSTSGYSYMHWYQQKPGQPPKLLIYLASNLESGVPARFSGSGSGTDFTLNIHPVEEEDAATYYCQHSRELPYTFGGGTKLEIKR
notes: Human IgG1 / kappa chimeric

The remaining lines, values behind:

Molecule: hIgG1 Isotype (antibody)
% Positive for HER4 [1]: 0.07% | % Parent (HER3 positive gate) [2]: 0.18%

Molecule: anti-HER3 antibody clone LJM716
% Positive for HER4 [1]: 0.27% | Kd (FcRn (human)): 16.5 nM | Kd (FcgRIIIA (F158) (human)): 5.38 µM | Kd (moFcRn (mouse)): 12.8 nM | Kd (moFcgRIV (mouse)): 701 nM | Kd [4]: 0.705 µM | % Parent (HER3 positive gate) [2]: 74.4% | % Parent (HER3 positive) [5]: 99.5% | % Parent (HE3 Positive) [6]: 98.7%

B3: anti-HER3 clone 10D1_c90 IgG1 (antibody, V domains shown)
VH: QVQLQESGPGLVKPSQTLFLTCTVSGYSITSGYSWHWIRQHPGKGLEWIGSIRYSGGTDYNPSLKSLVTISVDTSKNQFSLKLSSVTAADTAVYYCARMTTAPWYPFDYWGQGTTVTVSS
VL: DIQMTQSPSSVSASVGDRVTFTCKASQIVGSNVAWYQQKPGKAPEPLIYSASYLYSSVPSRFSGSGSGTEFTMTISSLEPEDFATYYCQQYTTHPLTFGPGTKVEIKR
notes: Humanised 10D1 variant, human IgG1 / kappa
EC50 (read off the curve) [11]: ~6 ng/mL
